The text below walks through data of patent US20190369104A1, “P27 TYROSINE PHOSPHORYLATION AS A MARKER OF CDK4 ACTIVITY AND METHODS OF USE THEREOF” (THE RESEARCH FOUNDATION FOR THE STATE UNIVERSITY OF NEW YORK, priority 2016, published 2019).

First the molecules themselves.
B3: Brk SH3 domain (displayed on phage) (other)
chain: KYVGLWDFKSRTDEELSFRAGDVFHVARKEEQWWWATLLDEAGGAVAQGYVPHNYLAER
notes: also called SH3 domain of Brk

One experiment concerns HCC1954 cells. Nature of the experiment: Palbociclib inhibitor treatment, viable cell count IC50. In kind it is cell-based. The settings on record: Homo sapiens; HCC1954 cells (Rb+). How it is done: (§1) Cells were seeded on six well plates in duplicate, 5.0×10^4 per well. 24 hours post seeding, one well for each plate was treated with trypsin and counted using the Biorad Automated cell counter. 48 hours post seeding, another well was treated with trypsin and counted and the rest of the wells were treated with Palbociclib (SelleckChem) at 50 nM, 100 nM, 200 nM and 400 nM. DMSO was used as a negative control. Cells were counted again 24 and 48 h post treatment. The IC50 values were determined by normalizing the number of viable cells treated with different concentrations of Palbociclib to the number of viable cells treated with DMSO for each cell line 48 hours post treatment. The number of viable cells treated with DMSO was considered 100%. The log of the viability values was obtained and the data was fitted to a nonlinear regression curve, which was used to generate the IC50 values using Graphpad Prism software.

The subject of another experiment is MCF7 cells. The experiment is described as above. Format: cell-based. The settings on record: Homo sapiens. The protocol: as §1
The test system of the next experiment is MDA MB231 cells. The experiment is described as above. Format: cell-based. The settings on record: Homo sapiens, MDA-MB-231. The protocol: as §1
Experiment [1] has as its system MCF7-Wt Brk expressing cells. Nature of the experiment: Palbociclib (PD) resistance of Brk-overexpressing cells, IC50. In kind it is cell-based. The note with it: Homo sapiens. How it is done:
as §1
Generation of the WT-Brk, KM-Brk, and YF-Brk has been described (Palka-Hamblin H. L. et al., […] J. Cell Sc. 123: 236-45). Amphotropic retroviruses were generated by transfection using Lipofectamine 2000 (Life Technologies 11668-019) of HEK 293 cells with pAmpho envelope and pBabe or pTRE3G tetracycline inducible constructs. Following viral infection of MCF7 cells, stable integrants were isolated by puromycin selection. […]

The test system of a further experiment is p27 pY88 in MCF7 cells. Nature of the experiment: Dual pY/p27 IHC assay on cell blocks. Format: cell-based. On the set-up: key to pY staining intensity: 0: no pY staining; 1: weak pY staining; 2: moderate pY staining; 3: strong pY staining. The settings on record: MCF7 cells treated with 400 nM Palbociclib, 48 h.
For experiment [2], the target named is B3. Nature of the experiment: phage-ELISA on immobilised GST-K2. From the text:
(§2) (FIG. 1A) p27 sequence highlighting the proline tracts of the three putative SH3 domain recruitment sites (PxxP): K1 (90-96), K2 (114-117) and K3 (188-195) (SEQ ID NO: 1). Phage-ELISA-analysis of SFK SH3 interactions with p27 (FIG. 1B) or p27's PxxP motifs (FIG. 1C). Data shown is the mean of three independent experiments±standard deviation after normalization and subtraction of the background binding to GST.
(§3) Phage supernatants were generated and binding of SH3-phages to recombinantly produced His-tagged-p27 or GST-PxxP-peptides were analyzed as described (Asbach B. et al., (2012) PLoS One 6: e38540).
(In an ELISA, binding on a coated surface is turned into a signal by an enzyme label.)

The target in experiment [3] is T1, Abl SH3 domain (displayed on phage) (UniProt P00519 61-121, limits assumed).
T1 construct: domain: SH3
Nature of the experiment: phage-ELISA on immobilised GST-K2.
Text: as §2, §3

In experiment [4] the target is T2, Yes SH3 domain (displayed on phage) (UniProt P07947 91-152, limits assumed).
T2 construct: domain: SH3
Nature of the experiment: phage-ELISA on immobilised GST-K2.
Text: as §2, §3

The subject of experiment [5] is ER/PR+, Her2− breast cancer cell lines. Nature of the experiment: ALT (alone or with Palbociclib) in breast cancer cell lines. In kind it is cell-based. From the text:
To block pY in breast cancer cell lines, we used a small peptide ALT, which contains a portion of Brk's SH3 domain. ALT binds to p27, blocks Brk's association and ability to phosphorylate p27, inhibiting cdk4 and increasing p27's ability to inhibit cdk2. We generated Tetracycline inducible cell lines that expressed ALT and/or engineered a lipid-based nanoparticle delivery vehicle (NP-ALT), permitting us to test ALT as a first generation therapeutic. ALT was also used with Palbociclib to determine if combination therapy reduced drug resistance. pY inhibition comes with a built in biomarker for efficacy and the identification of responsive cell lines and/or future patients. We developed a dual IHC assay for p27 and pY, which we used to analyze both a breast cancer cell line panel previously stratified for Palbociclib sensitivity as well as paraffin-embedded, archival human tumor samples.

Experiment [6] has as its target T3, recombinantly produced His-tagged p27 (full-length p27) (human, UniProt P46527 1-198).
T3 construct: also called p27Kip1; His-p27; not shown: C-terminal histidine tag
Nature of the experiment: phage-ELISA, SH3 phage on immobilised His-p27 (multivalent phage). How it is done: as §3

[7] abbreviates: ER/PR+, Her2− breast cancer cell lines.

T2 sequence (P07947 91-152 limits assumed): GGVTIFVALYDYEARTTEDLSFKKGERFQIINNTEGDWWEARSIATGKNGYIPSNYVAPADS
T3 sequence (P46527 whole entry): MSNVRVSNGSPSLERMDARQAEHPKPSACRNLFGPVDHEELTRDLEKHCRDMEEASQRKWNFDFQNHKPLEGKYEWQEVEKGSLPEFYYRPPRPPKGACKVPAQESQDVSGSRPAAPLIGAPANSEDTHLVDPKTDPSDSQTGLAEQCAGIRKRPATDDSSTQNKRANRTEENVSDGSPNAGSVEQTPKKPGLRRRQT
T1 sequence (P00519 61-121 limits assumed): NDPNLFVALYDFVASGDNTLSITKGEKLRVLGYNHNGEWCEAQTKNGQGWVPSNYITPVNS
Procedure for p27 pY88 in MCF7 cells: 1×10^12 cells were grown in tissue culture, spun down and fixed in 10% formalin, embedded in paraffin, and then analyzed in the dual pY/p27 IHC assay as described. MCF7 cells were treated with 400 nM Palbociclib for 48 h. before cell block preparation. […] On day 1, slides are labeled with a pencil and baked in an oven at 65° C. for 30 minutes and immediately transferred from the oven to a coplin jar containing Xylene. Slides are rinsed in Xylene 4× for 3 minutes each at room temperature followed by a graded alcohol wash at 100%-95%-75% ethanol 3 times, 3 min each at R.T. Slides were then hydrated by incubation in H2O once for 3 min. After drying, a hydrophobic barrier was created around the tissue using a PAP pen. Endogenous peroxide was blocked by incubating the slides with Peroxide block for 30 min at room temp. The slides were washed with TBS-0.1% Tween 20 3 times for 3 minutes each followed by incubation in 1×PBS for 3 min. After an incubation with a with protein block for 1 h at R.T, P27 [MUT] antibody diluted 1:200 in the DAKO antibody diluent was added to the slides for an overnight incubation at 4° C. On day 2, a 1× solution of antigen retrieval was prepared from 10× stock and it was equilibrated at 100° C. in the water bath. […]

Take `CC(=O)c1c(C)c2cnc(Nc3ccc(N4CCNCC4)cn3)nc2n(C2CCCC2)c1=O` [Palbociclib]: the IC50 with HCC1954 cells is 1000 nM; in the experiment with MCF7 cells it was 200 nM; in the experiment on MDA MB231 cells, 400 nM; in [1] it was approximately 600 nM. Further, the “pY staining, % of cells stained” value in the experiment with p27 pY88 in MCF7 cells amounted to 0%. This molecule displayed a pY staining intensity in the experiment on p27 pY88 in MCF7 cells (scale 0-3) of 0.

B1: GST-K2 (GST-tagged p27 PxxP peptide K2) (peptide)
chain: DVSGSRPAAPLIGAPA
notes: also called K2 site; not shown: N-terminal GST tag from the pGEX-KG expression vector
B1: the binding result in experiment [2], in experiment [3] and in [4] was “no binding” each time.

B2: ALT: small peptide ALT, which contains a portion of Brk's SH3 domain; alternatively-spliced form of Brk (SEQ ID NO: 12) (protein)
chain: MVSRDQAHLGPKYVGLWDFKSRTDEELSFRAGDVFHVARKEEQWWWATLLDEAGGAVAQGYVPHNYLAERETVESEPAGHAGCAALQDLAACRGPAAPERGGVLPQPARACELPQGPEPVPRPAAGRALPEARA
modifications: Alt-Brk
Take B2: in experiment [5] (setting [7]), the cdk2 activity result is on record as “blocked”, the cdk4 activity result is reported as “blocked”, the pY entry is reported as “blocked” and the proliferation entry was “blocked”. Moreover, the duration of arrest in experiment [5] (breast cancer cell lines) is more than 10 days.
As for B3, the Kd in [6] was 250 nM.

A word on the IC50: it is the midpoint of a concentration-inhibition curve. Broadly, the Kd is the concentration at which binding is half-saturated.
